Experimental findings from US20210246204A1 (Alector, published 2021) are described below.

Experiment [1] deals with T1, human Siglec-7 on primary human monocyte-derived dendritic cells (human, UniProt Q9Y286 19-467).
T1 construct: Endogenous Siglec-7 on dendritic cells differentiated from monocytes of healthy human donors
The experiment can be described thus: flow cytometry, primary human dendritic cells. The method, then: The 12 humanized antibodies of S7AB were evaluated for binding to primary dendritic cells by flow cytometry. Monocytes were isolated from blood from healthy human donors using the RosetteSep™ monocyte isolation antibody cocktail (StemCell Technologies). The isolated monocytes were differentiated into dendritic cells with 100 ng/mL GM-CSF and 100 ng/mL IL-4 (Peprotech). Dendritic cells were incubated with dilutions of the anti-Siglec-7 antibodies for 30 minutes on ice in the dark, followed by a 30-minute incubation with a fluorescently-conjugated anti-human IgG secondary antibody. Cells were washed twice in FACS buffer (PBS+2% FBS, 2 mM EDTA), and flow cytometry was performed on a BD FACS Canto. Data were analyzed using FlowJo software (Ashland, Oreg.).
In general terms: In flow cytometry, cells or beads pass a laser one at a time.

For experiment [2], the target named is T2, histidine-tagged human Siglec-7 (NovoProtein) (human, UniProt Q9Y286 19-353).
T2 construct: Bought protein; also called recombinant human Siglec-7; recombinant Siglec-7; not shown: histidine tag
The experiment can be described thus: BLI, antibody captured. An outline of the steps:
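Antibodies captured on anti-human or anti-mouse IgG Fc biosensors; His-tagged human Siglec-7 flowed at 0–100 nM (200 s association, 900 s dissociation). ka and kd from 1:1 multi-concentration fit; apparent KD = kd/ka.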

Experiment [3] addresses T1, human Siglec-7 on primary human …. The experiment can be described thus: cell-based or functional assay.
In experiment [4] the target is T2, histidine-tagged human Siglec-7 …. Nature of the experiment: BLI (ForteBio), antibody captured. The method, then:
In this assay, the humanized antibodies were compared directly to S7AB. Briefly, the antibodies were captured on anti-human or anti-mouse IgG Fc Biosensors (Pall ForteBio). Varying concentrations (0-100 nM) of histidine-tagged human Siglec-7 (NovoProtein) were then bound to the captured anti-Siglec-7 surface (200 s association time, 900 s dissociation time). Multi-concentration kinetic analysis was performed using a 1:1 interaction model to extract association and dissociation rate constants (kₐ and kd, respectively) for each antibody. Apparent affinity constants (KD) were calculated from the ratio kd/kₐ.
Background: Biolayer interferometry detects binding as a change in optical thickness at a sensor tip.

T2 sequence (Q9Y286 19-353 limits assumed): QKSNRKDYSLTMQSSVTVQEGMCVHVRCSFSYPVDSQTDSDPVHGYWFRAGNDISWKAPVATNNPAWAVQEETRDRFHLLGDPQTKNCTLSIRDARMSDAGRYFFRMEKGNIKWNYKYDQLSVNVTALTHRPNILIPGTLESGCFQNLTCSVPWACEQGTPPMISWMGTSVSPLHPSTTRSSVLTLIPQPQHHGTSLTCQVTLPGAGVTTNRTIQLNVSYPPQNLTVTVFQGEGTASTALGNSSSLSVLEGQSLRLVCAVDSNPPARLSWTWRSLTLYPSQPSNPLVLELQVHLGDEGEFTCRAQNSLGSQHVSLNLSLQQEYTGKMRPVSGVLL
T1 sequence (Q9Y286 19-467): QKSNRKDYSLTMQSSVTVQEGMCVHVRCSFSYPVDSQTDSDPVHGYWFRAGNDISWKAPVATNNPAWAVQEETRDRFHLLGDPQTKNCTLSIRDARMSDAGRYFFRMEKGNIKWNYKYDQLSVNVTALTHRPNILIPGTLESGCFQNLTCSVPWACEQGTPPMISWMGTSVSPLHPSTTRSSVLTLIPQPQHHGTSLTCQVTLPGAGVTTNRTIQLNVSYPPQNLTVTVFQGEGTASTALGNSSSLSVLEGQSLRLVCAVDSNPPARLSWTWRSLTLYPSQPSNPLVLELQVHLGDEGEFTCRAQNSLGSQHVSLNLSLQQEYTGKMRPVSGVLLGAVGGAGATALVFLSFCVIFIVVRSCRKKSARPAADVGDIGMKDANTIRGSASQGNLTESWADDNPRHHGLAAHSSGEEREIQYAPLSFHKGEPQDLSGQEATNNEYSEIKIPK

B1: S7AB-H1 (antibody, V domains shown)
VH: QVQLVQSGAEVKKPGASVKVSCKASGYAFTNCWMNWVRQAPGQGLEWMGRIFPGNGHTNYAQKFQGRVTMTRDTSTSTVYMELSSLRSEDTAVYYCARDYSDYYFDYWGQGTLVTVSS
VL: DIQMTQSPSSLSASVGDRVTITCRASQDINTYLNWYQQKPGKAPKLLIYYTSRLHSGVPSRFSGSGSGTDFTLTISSLQPEDFATYYCQQGNTLPWTFGQGTKLEIK
With B1, in experiment [1], the EC50 worked out at 4.6 nM.

B2: S7AB-H5 (antibody, V domains shown)
VH: QVQLVQSGAEVKKPGASVKVSCKASGYAFTNCWMNWVRQAPGQGLEWIGRIFPGNGHTNYAQKFQGRVTMTEDTSTSTVYMELSSLRSEDTAVYYCARDYSDYYFDYWGQGTLVTVSS
VL: DIQMTQSPSSLSASVGDRVTITCRASQDINTYLNWYQQKPGKAPKLLIYYTSRLHSGVPSRFSGSGSGTDYTLTISSLQPEDFATYYCQQGNTLPWTFGQGTKLEIK
In the case of B2, in experiment [1], the EC50 was 1.1 nM.

B3: S7AB-H8.41 (antibody, V domains shown)
VH: QVQLVQSGAEVKKPGASVKVSCKASGYAFTETWMNWVRQAPGQGLEWIGRIFPGLGHTNYAQKFQGRATLTEDTSTSTAYMELSSLRSEDTAVYYCARDYSDYYFDYWGQGTLVTVSS
VL: DIQMTQSPSSLSASVGDRVTITCRGSQDINTYLNWYQQKPGKAPKLLIYYTSRLHSGVPSRFSGSGSGTDYTLTISSLQPEDFATYYCQQGNILPWTFGQGTKLEIK
As for B3, in experiment [2], the Kd was determined as 0.531 nM, the “fold improvement over S7AB-H8” value was 2 fold, the koff worked out at 9.12e-05 s⁻¹ and the kon came out at 172000 M⁻¹ s⁻¹. Also, in experiment [3], the “Fold increase in potency compared to AB-H8” value (from here on “Fold increase … to AB-H8”) was found to be 3.2 fold; the “Fold increase in potency compared to Chimeric Ab” value (“Fold increase … to Chimeric Ab” for short) turned out to be 9.5 fold; the “Maximal downregulation (% Siglec-7 remaining)” value was determined as 9.6%; the “Receptor downregulation, (EC50) (pM)” value is 108 pM.

B4: S7AB-H4 (antibody, V domains shown)
VH: QVQLVQSGAEVKKPGASVKVSCKASGYAFTNCWMNWVRQAPGQGLEWIGRIFPGNGHTNYAQKFQGRVTMTEDTSTSTVYMELSSLRSEDTAVYYCARDYSDYYFDYWGQGTLVTVSS
VL: DIQMTQSPSSLSASVGDRVTITCRASQDINTYLNWYQQKPGKAPKLLIYYTSRLHSGVPSRFSGSGSGTDFTLTISSLQPEDFATYYCQQGNTLPWTFGQGTKLEIK
The molecule B4 had an EC50 in experiment [1] of 3.2 nM.

B5: S7AB-H8.43 (antibody, V domains shown)
VH: QVQLVQSGAEVKKPGASVKVSCKASGYAFTGYWMNWVRQAPGQGLEWIGRIFPGLGHTNYAQKFQGRATLTEDTSTSTAYMELSSLRSEDTAVYYCARDYSDYYFDYWGQGTLVTVSS
VL: DIQMTQSPSSLSASVGDRVTITCRGSQDINTYLNWYQQKPGKAPKLLIYYTSRLHSGVPSRFSGSGSGTDYTLTISSLQPEDFATYYCQQGNILPWTFGQGTKLEIK
notes: also called S7AB-H.43
For B5, in experiment [2], the Kd is 0.256 nM, the “fold improvement over S7AB-H8” value was found to be 4.1 fold, the koff is 5.84e-05 s⁻¹ and the kon was 228000 M⁻¹ s⁻¹. Also, in experiment [3], the “Fold increase … to AB-H8” value stood at 10.2 fold; the “Fold increase … to Chimeric Ab” value came out at 30.8 fold; the “Maximal downregulation (% Siglec-7 remaining)” value turned out to be 17.1%; the “Receptor downregulation, (EC50) (pM)” value is 33.2 pM.

B6: S7AB-H8.42 (antibody, V domains shown)
VH: QVQLVQSGAEVKKPGASVKVSCKASGYAFTMAWMNWVRQAPGQGLEWIGRIFPGYGHTNYAQKFQGRATLTEDTSTSTAYMELSSLRSEDTAVYYCARDYSDYYFDYWGQGTLVTVSS
VL: DIQMTQSPSSLSASVGDRVTITCRGSQDINTYLNWYQQKPGKAPKLLIYYTSRLHSGVPSRFSGSGSGTDYTLTISSLQPEDFATYYCQQGNILPWTFGQGTKLEIK
For B6, in experiment [2], binding was characterised by a dissociation constant (Kd) of 0.126 nM, the “fold improvement over S7AB-H8” value was determined as 8.3 fold, the koff was 2.42e-05 s⁻¹ and the kon is 191000 M⁻¹ s⁻¹. Further, in experiment [3], the “Fold increase … to AB-H8” value was found to be 5.4 fold; the “Fold increase … to Chimeric Ab” value came to 16.4 fold; the “Maximal downregulation (% Siglec-7 remaining)” value was 3.3%; the “Receptor downregulation, (EC50) (pM)” value came out at 62.6 pM.

B7: S7AB-H8.40 (antibody, V domains shown)
VH: QVQLVQSGAEVKKPGASVKVSCKASGYAFTEAWMNWVRQAPGQGLEWIGRIFPGYGHTNYAQKFQGRATLTEDTSTSTAYMELSSLRSEDTAVYYCARDYSDYYFDYWGQGTLVTVSS
VL: DIQMTQSPSSLSASVGDRVTITCRGSQDINTYLNWYQQKPGKAPKLLIYYTSRLHSGVPSRFSGSGSGTDYTLTISSLQPEDFATYYCQQGNVLPWTFGQGTKLEIK
Take B7: in experiment [2], the Kd was determined as 0.425 nM, the “fold improvement over S7AB-H8” value amounted to 2.5 fold, the koff was 6.29e-05 s⁻¹ and the kon came to 148000 M⁻¹ s⁻¹. In experiment [3], the “Fold increase … to AB-H8” value stood at 2.9 fold; the “Fold increase … to Chimeric Ab” value is 8.9 fold; the “Maximal downregulation (% Siglec-7 remaining)” value was determined as 9.4%; the “Receptor downregulation, (EC50) (pM)” value was found to be 115 pM.

B8: S7AB-H3 (antibody, V domains shown)
VH: QVQLVQSGAEVKKPGASVKVSCKASGYAFTNCWMNWVRQAPGQGLEWMGRIFPGNGHTNYAQKFQGRVTMTRDTSTSTVYMELSSLRSEDTAVYYCARDYSDYYFDYWGQGTLVTVSS
VL: DVQMTQSPSSLSASVGDRVTITCRASQDINTYLNWYQQKPGKAPKLLIYYTSRLHSGVPSRFSGSGSGTDYTLTISSLQPEDFATYYCQQGNTLPWTFGQGTKLEIK
With B8, the EC50 in experiment [1] is 1.6 nM.

B9: S7AB-H2 (antibody, V domains shown)
VH: QVQLVQSGAEVKKPGASVKVSCKASGYAFTNCWMNWVRQAPGQGLEWMGRIFPGNGHTNYAQKFQGRVTMTRDTSTSTVYMELSSLRSEDTAVYYCARDYSDYYFDYWGQGTLVTVSS
VL: DIQMTQSPSSLSASVGDRVTITCRASQDINTYLNWYQQKPGKAPKLLIYYTSRLHSGVPSRFSGSGSGTDYTLTISSLQPEDFATYYCQQGNTLPWTFGQGTKLEIK
B9 yielded an EC50 in experiment [1] of 1.8 nM. The EC50 values of the last two molecules are within 1.5-fold of each other.

B10: S7AB-H8.44 (antibody, V domains shown)
VH: QVQLVQSGAEVKKPGASVKVSCKASGYAFTAAWMNWVRQAPGQGLEWIGRIFPGLGHTNYAQKFQGRATLTEDTSTSTAYMELSSLRSEDTAVYYCARDYSDYYFDYWGQGTLVTVSS
VL: DIQMTQSPSSLSASVGDRVTITCRGSQDINTYLNWYQQKPGKAPKLLIYYTSRLHSGVPSRFSGSGSGTDYTLTISSLQPEDFATYYCQQGNILPWTFGQGTKLEIK
Turning to B10, in experiment [2], the Kd is 0.198 nM, the “fold improvement over S7AB-H8” value amounted to 5.3 fold, the koff was found to be 3.71e-05 s⁻¹ and the kon was found to be 188000 M⁻¹ s⁻¹. In experiment [3], the “Fold increase … to AB-H8” value was found to be 5.6 fold; the “Fold increase … to Chimeric Ab” value was 16.7 fold; the “Maximal downregulation (% Siglec-7 remaining)” value is 3.6%; the “Receptor downregulation, (EC50) (pM)” value was found to be 61.2 pM.

B11: S7AB-H8.45 (antibody, V domains shown)
VH: QVQLVQSGAEVKKPGASVKVSCKASGYAFTEAWMNWVRQAPGQGLEWIGRIFPGYGHTNYAQKFQGRATLTEDTSTSTAYMELSSLRSEDTAVYYCARDYSDYYFDYWGQGTLVTVSS
VL: DIQMTQSPSSLSASVGDRVTITCRGSQDINTYLNWYQQKPGKAPKLLIYYTSRLHSGVPSRFSGSGSGTDYTLTISSLQPEDFATYYCQQGNILPWTFGQGTKLEIK
Regarding B11, in experiment [2], the Kd turned out to be 0.444 nM, the “fold improvement over S7AB-H8” value worked out at 2.4 fold, the koff was 7.55e-05 s⁻¹ and the kon came to 170000 M⁻¹ s⁻¹. Further, in experiment [3], the “Fold increase … to AB-H8” value was determined as 3.4 fold; the “Fold increase … to Chimeric Ab” value came to 10.4 fold; the “Maximal downregulation (% Siglec-7 remaining)” value was 6.9%; the “Receptor downregulation, (EC50) (pM)” value came to 98.6 pM.

B12: S7AB-H8.39 (antibody, V domains shown)
VH: QVQLVQSGAEVKKPGASVKVSCKASGYAFTAAWMNWVRQAPGQGLEWIGRIFPGLGHTNYAQKFQGRATLTEDTSTSTAYMELSSLRSEDTAVYYCARDYSDYYFDYWGQGTLVTVSS
VL: DIQMTQSPSSLSASVGDRVTITCRGSQDINTYLNWYQQKPGKAPKLLIYYTSRLHSGVPSRFSGSGSGTDYTLTISSLQPEDFATYYCQQGNVLPWTFGQGTKLEIK
In the case of B12, in experiment [2], the affinity, expressed as Kd, was 0.215 nM; the “fold improvement over S7AB-H8” value amounted to 4.9 fold; the off-rate (koff) worked out at 3.56e-05 s⁻¹; the kon was determined as 166000 M⁻¹ s⁻¹. In addition, in experiment [3], the “Fold increase … to AB-H8” value turned out to be 6 fold; the “Fold increase … to Chimeric Ab” value is 18 fold; the “Maximal downregulation (% Siglec-7 remaining)” value came to 4.3%; the “Receptor downregulation, (EC50) (pM)” value amounted to 56.8 pM.

B13: S7AB (antibody, V domains shown)
VH: QVHLQQSGPELVKPGASVKISCKASGYAFTNCWMNWVRQRPGKGLDWIGRIFPGNGHTNYSGKFKDKATLTEDKSSSTAYMQLSSLTSEDSAVYFCARDYSDYYFDYWGQGTTLTVSS
VL: DVQMTQTTSSLSASLGDRVTISCRASQDINTYLNWYQQKPDGTVKLLIYYTSRLHSGVPSRFSGSGSGTDYSLTISNLEQEDIATYFCQQGNTLPWTFGGGTKLEIK
notes: Parental mouse antibody; also called S7-10B5.1; mouse anti-human Siglec-7 antibody
For B13, in experiment [4], the Kd stood at 1.24 nM, the koff worked out at 0.000242 s⁻¹ and the kon is 195000 M⁻¹ s⁻¹.

One may read the EC50 as the midpoint of the concentration-response curve. Usually Kd stands for the free concentration of one partner at which half of the binding sites on the other are occupied at equilibrium, for simple one-to-one binding. For orientation: koff means a measure of how fast the partners let go of each other. The kon is the second-order rate constant of association.
